Data published in publication PMC2928781.

Tests used:
Test in all cases: two-hybrid; L40 strain co-transformed with pGAD424 (prey) and pBTM116 (target) constructs; LACZ reporter read by ONPG assay (Miller units); each mutant against the wild-type MSH4 or MSH5 partner; three independent co-transformants
[1] = target: Msh5 Y661A (S. cerevisiae) (UniProt Q12175)
[2] = target: Msh5 R436A (S. cerevisiae) (UniProt Q12175)
[3] = target: Msh5 D539A (S. cerevisiae) (UniProt Q12175)
[4] = target: Msh5 Y480A (S. cerevisiae) (UniProt Q12175)
[5] = target: Msh5 V488A (S. cerevisiae) (UniProt Q12175)
[6] = target: Msh5 S416A (S. cerevisiae) (UniProt Q12175)
[7] = target: Msh5 D680A (S. cerevisiae) (UniProt Q12175)
[8] = target: Msh5 R685W (S. cerevisiae) (UniProt Q12175)
[9] = target: Msh5 (S. cerevisiae) (UniProt Q12175)
[10] = target: Msh5 D532A (S. cerevisiae) (UniProt Q12175)
[11] = target: Msh5 D76A (S. cerevisiae) (UniProt Q12175)
[12] = target: Msh5 D433A (S. cerevisiae) (UniProt Q12175)
[13] = target: Msh5 E45A (S. cerevisiae) (UniProt Q12175)
[14] = target: Msh5 D250A (S. cerevisiae) (UniProt Q12175)
[15] = target: Msh5 N182A (S. cerevisiae) (UniProt Q12175)
[16] = target: Msh5 D527A (S. cerevisiae) (UniProt Q12175)
[17] = target: Msh5 G648A (S. cerevisiae) (UniProt Q12175)
[18] = target: Msh5 W298A (S. cerevisiae) (UniProt Q12175)

Sequence of Msh4 (P40965 whole entry): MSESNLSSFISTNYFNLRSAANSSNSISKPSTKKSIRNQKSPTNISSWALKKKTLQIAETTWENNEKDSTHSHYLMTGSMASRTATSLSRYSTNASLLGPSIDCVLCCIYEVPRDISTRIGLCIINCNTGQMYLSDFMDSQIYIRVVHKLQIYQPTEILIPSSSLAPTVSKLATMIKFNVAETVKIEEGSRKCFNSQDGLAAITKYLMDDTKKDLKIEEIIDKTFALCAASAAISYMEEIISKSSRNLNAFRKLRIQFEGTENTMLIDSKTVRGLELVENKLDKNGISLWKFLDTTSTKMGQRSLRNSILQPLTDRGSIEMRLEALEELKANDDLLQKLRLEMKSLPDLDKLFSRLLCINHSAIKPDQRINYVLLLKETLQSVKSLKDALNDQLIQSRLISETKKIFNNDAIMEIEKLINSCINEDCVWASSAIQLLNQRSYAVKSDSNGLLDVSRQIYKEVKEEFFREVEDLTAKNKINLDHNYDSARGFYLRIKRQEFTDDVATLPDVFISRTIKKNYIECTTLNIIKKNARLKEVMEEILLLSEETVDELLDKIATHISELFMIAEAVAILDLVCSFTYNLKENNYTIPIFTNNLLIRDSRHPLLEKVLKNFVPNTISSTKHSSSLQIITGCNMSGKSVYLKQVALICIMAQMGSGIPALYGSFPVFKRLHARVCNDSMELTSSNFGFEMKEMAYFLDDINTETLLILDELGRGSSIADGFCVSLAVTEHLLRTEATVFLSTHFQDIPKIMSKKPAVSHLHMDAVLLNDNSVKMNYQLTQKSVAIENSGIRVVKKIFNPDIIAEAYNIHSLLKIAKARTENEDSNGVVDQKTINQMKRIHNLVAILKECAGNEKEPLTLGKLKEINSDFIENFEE

Q: With “Msh4 (from UniProt P40965 1-878) (natural protein)” as the substance, how does the β-galactosidase activity (two-hybrid) [1] read?
A: 1.2 Miller units

Q: What about the β-galactosidase activity (two-hybrid) [2] of the same substance?
A: 1.3 Miller units

Q: And the β-galactosidase activity (two-hybrid) [3]?
A: 89 Miller units

Q: And the β-galactosidase activity (two-hybrid) [4]?
A: 2.2 Miller units

Q: And the β-galactosidase activity (two-hybrid) [5]?
A: 1.4 Miller units

Q: What about the β-galactosidase activity (two-hybrid) [6] of the same substance?
A: 3 Miller units

Q: What about the β-galactosidase activity (two-hybrid) [7] of the same substance?
A: 1.4 Miller units

Q: What about the β-galactosidase activity (two-hybrid) [8] of the same substance?
A: 46 Miller units

Q: What about the β-galactosidase activity (two-hybrid) [9] of the same substance?
A: 54 Miller units

Q: What about the β-galactosidase activity (two-hybrid) [10] of the same substance?
A: 3.7 Miller units

Q: And the β-galactosidase activity (two-hybrid) [11]?
A: 1.3 Miller units

Q: What about the β-galactosidase activity (two-hybrid) [12] of the same substance?
A: 1.4 Miller units

Q: What about the β-galactosidase activity (two-hybrid) [13] of the same substance?
A: 62 Miller units

Q: What about the β-galactosidase activity (two-hybrid) [14] of the same substance?
A: 6.2 Miller units

Q: What about the β-galactosidase activity (two-hybrid) [15] of the same substance?
A: 63 Miller units

Q: And the β-galactosidase activity (two-hybrid) [16]?
A: 1.9 Miller units

Q: What about the β-galactosidase activity (two-hybrid) [17] of the same substance?
A: 45 Miller units

Q: And the β-galactosidase activity (two-hybrid) [18]?
A: 1.4 Miller units

Q: With “Msh4 D139A (from UniProt P40965 1-878) (natural protein)” as the substance, how does the β-galactosidase activity (two-hybrid) [9] read?
A: 1.5 Miller units

Q: How did the β-galactosidase activity (two-hybrid) [9] turn out when “Msh4 E276A (from UniProt P40965 1-878) (natural protein)” was run?
A: 70 Miller units

Q: For “Msh4 F491A (from UniProt P40965 1-878) (natural protein)”, which β-galactosidase activity (two-hybrid) [9] is on record?
A: 2.5 Miller units

Q: For “Msh4 G639A (from UniProt P40965 1-878) (natural protein)”, which β-galactosidase activity (two-hybrid) [9] is on record?
A: 11.6 Miller units

Q: How did the β-galactosidase activity (two-hybrid) [9] turn out when “Msh4 L493A (from UniProt P40965 1-878) (natural protein)” was run?
A: 1.6 Miller units

Q: With “Msh4 R456A (from UniProt P40965 1-878) (natural protein)” as the substance, how does the β-galactosidase activity (two-hybrid) [9] read?
A: 1.9 Miller units

Q: For “Msh4 R676W (from UniProt P40965 1-878) (natural protein)”, which β-galactosidase activity (two-hybrid) [9] is on record?
A: 96 Miller units
